Columns and labels:
[1] = target: PN45545 TCR-CD3, strep-tagged, detergent-solubilized (SPR reagent) (humanized VelociT mouse | not stated) (UniProt P07766); experiment: SPR; details: peptide-MHC
[2] = target: PN45428 TCR-CD3, strep-tagged, detergent-solubilized (SPR reagent) (humanized VelociT mouse | not stated) (UniProt P07766); experiment: SPR; details: peptide-MHC

Substance | Kd [1] [µM] | Kd [2] [µM]
single-chain disulfide-stabilized MAGEA4 (230-239) pMHC (from UniProt P61769 21-119) | 6.1 | –
single-chain disulfide-stabilized MAGEA8 (232-241) pMHC (from UniProt P61769 21-119) | 420 | 260

Reference: PMC10132440
